The values that follow come from paper PMC10675840, “Structure-function analysis of ceTIR-1/hSARM1 explains the lack of Wallerian axonal degeneration in C. elegans” (Cell reports, 2023).

The target of one data set is T1, ceTIR-1 (Caenorhabditis elegans, UniProt Q86DA5).
T1 construct: gene tir-1; near-intact ARM-SAM-SAM-TIR, residues 162-872 (HMD...QQR), N-terminal 6xHis + TEV site, HEK293F expression, mostly 9-mer ring, partly dissociated
T1 sequence (Q86DA5 216-926): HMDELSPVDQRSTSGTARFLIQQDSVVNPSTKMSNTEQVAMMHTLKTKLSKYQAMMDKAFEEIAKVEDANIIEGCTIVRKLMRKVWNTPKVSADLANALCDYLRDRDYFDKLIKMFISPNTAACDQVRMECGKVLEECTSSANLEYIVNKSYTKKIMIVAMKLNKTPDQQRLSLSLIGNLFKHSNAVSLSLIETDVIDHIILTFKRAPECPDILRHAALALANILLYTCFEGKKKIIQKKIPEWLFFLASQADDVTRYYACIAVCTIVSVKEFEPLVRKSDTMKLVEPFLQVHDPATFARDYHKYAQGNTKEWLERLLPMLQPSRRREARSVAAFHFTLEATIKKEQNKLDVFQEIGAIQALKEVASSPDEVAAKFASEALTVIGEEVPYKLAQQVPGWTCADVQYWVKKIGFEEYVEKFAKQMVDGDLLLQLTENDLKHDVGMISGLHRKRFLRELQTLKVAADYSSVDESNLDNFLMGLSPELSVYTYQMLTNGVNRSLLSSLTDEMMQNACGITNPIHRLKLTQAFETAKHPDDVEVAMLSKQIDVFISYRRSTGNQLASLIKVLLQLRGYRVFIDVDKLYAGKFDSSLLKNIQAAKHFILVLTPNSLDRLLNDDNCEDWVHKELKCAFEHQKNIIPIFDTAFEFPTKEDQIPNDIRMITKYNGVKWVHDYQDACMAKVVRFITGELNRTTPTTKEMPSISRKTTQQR
As to the kind of experiment: HPLC NAD+ consumption, dose response. In kind it is biochemical. An excerpt:
HPLC NAD+ consumption, dose response on ceTIR-1 | Nicotinamide (NAM) inhibits ceTIR-1 NADase activity

Data set [1] deals with the molecule itself. As to the kind of experiment: cross-linking; glutaraldehyde cross-linking of ceTIR-1^TIR and ceTIR-1^(TIR L729H).
For data set [2], the target named is T2, hSARM1 ARM and SAM domains (residues 26-562), the human part of CHIMERA (human, UniProt Q6SZW1 26-562).
T2 construct: human SARM1 ARM and SAM domains, residues 26-562 (26ERL...DTP562); Stood joined on one chain with m8 (together they are CHIMERA); written apart only for the contact of the human ARM with the C. elegans TIR in the structure; also called human ARM and SAM domains; source: HEK293F, transfected, purified, as part of the CHIMERA chain
T2 sequence (looked up): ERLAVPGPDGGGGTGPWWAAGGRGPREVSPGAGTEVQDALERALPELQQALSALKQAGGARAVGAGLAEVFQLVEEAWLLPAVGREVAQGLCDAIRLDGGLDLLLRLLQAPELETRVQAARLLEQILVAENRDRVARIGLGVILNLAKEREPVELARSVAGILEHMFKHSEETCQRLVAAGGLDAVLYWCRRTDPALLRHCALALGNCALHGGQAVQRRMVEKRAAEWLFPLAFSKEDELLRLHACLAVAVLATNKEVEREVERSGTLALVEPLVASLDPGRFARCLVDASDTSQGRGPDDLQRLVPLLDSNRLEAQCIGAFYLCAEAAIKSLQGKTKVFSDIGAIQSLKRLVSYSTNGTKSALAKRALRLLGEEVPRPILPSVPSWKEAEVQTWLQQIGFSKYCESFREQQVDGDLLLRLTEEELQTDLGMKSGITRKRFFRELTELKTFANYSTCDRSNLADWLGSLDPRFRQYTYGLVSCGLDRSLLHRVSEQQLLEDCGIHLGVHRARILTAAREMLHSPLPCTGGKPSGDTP
As to the kind of experiment: cryo-EM structure; purified CHIMERA supplemented with 5 mM NAD+; Titan Krios; 136,346 particles, C8 symmetry imposed. To be noted: both partners purified.

Data set [3] concerns the molecule itself. As to the kind of experiment: SEC; gel filtration of Ni-NTA purified hSARM1 and ceTIR-1, fractions read by anti-FLAG WB; Superdex 200 Increase 10/300, 25 mM phosphate pH 8.5, 120 mM NaCl, 2.5% glycerol, 1 mM DTT. In general terms: Size exclusion chromatography separates by hydrodynamic size, large species first.
Substrate in data set [4]: NC(=O)c1ccc[n+]([C@@H]2O[C@H](COP(=O)(O)OP(=O)(O)OC[C@H]3O[C@@H](n4cnc5c(N)ncnc54)[C@H](O)[C@@H]3O)[C@@H](O)[C@H]2O)c1
As to the kind of experiment: HPLC NAD+ consumption, Michaelis-Menten fit. The data set is classed as biochemical, Caenorhabditis elegans. The following applies: […] min, […] enzyme, pH […], unit appears as mM, a character error for µM (b50 gives about […] for hSARM1 and […] higher for ceTIR-1).

Data set [5] concerns the molecule itself. As to the kind of experiment: cryo-EM structure; purified CHIMERA supplemented with 5 mM NAD+; Titan Krios; 136,346 particles, C8 symmetry imposed.

The IC50 is the concentration at which inhibition is half-maximal. A low value points to greater potency in that assay. In the case of `NC(=O)c1cccnc1` [NAM], it took 910 µM to reach half-maximal inhibition at ceTIR-1 (IC50).

B1: ceTIR-1^TIR (residues 703-872) (domain or fragment, C. elegans, UniProt Q86DA5-2 703-872, looked up)
chain: MLSKQIDVFISYRRSTGNQLASLIKVLLQLRGYRVFIDVDKLYAGKFDSSLLKNIQAAKHFILVLTPNSLDRLLNDDNCEDWVHKELKCAFEHQKNIIPIFDTAFEFPTKEDQIPNDIRMITKYNGVKWVHDYQDACMAKVVRFITGELNRTTPTTKEMPSISRKTTQQR
notes: ceTIR-1 TIR domain, residues 703-872 (703MLS...QQR872); Dimeric by glutaraldehyde cross-linking; also called isolated TIR domain of ceTIR-1; source: E. coli T7 Express, purified (HisTrap, TEV, second HisTrap, Superdex SEC); not shown: His tag, N-terminal, cleaved
In general, stoichiometry N refers to a count of units in the complex or per binding partner. B1: the “stoichiometry N” value in data set [1] turned out to be 2.

B2: ceTIR-1 TIR domain (residues 709-872), the C. elegans part of CHIMERA (domain or fragment, UniProt Q86DA5-2 709-872, looked up)
chain: DVFISYRRSTGNQLASLIKVLLQLRGYRVFIDVDKLYAGKFDSSLLKNIQAAKHFILVLTPNSLDRLLNDDNCEDWVHKELKCAFEHQKNIIPIFDTAFEFPTKEDQIPNDIRMITKYNGVKWVHDYQDACMAKVVRFITGELNRTTPTTKEMPSISRKTTQQR
notes: ceTIR-1 TIR domain, residues 709-872 (709DVF...QQR872); Stood joined on one chain with m7 (together they are CHIMERA); also called C. elegans TIR; source: HEK293F, transfected, purified, as part of the CHIMERA chain
Consider B2, for which the binding result in data set [2] is reported as “binds”.

B3: hSARM1 (near-intact, residues 26-724) (enzyme, human, UniProt Q6SZW1 26-724, looked up)
chain: ERLAVPGPDGGGGTGPWWAAGGRGPREVSPGAGTEVQDALERALPELQQALSALKQAGGARAVGAGLAEVFQLVEEAWLLPAVGREVAQGLCDAIRLDGGLDLLLRLLQAPELETRVQAARLLEQILVAENRDRVARIGLGVILNLAKEREPVELARSVAGILEHMFKHSEETCQRLVAAGGLDAVLYWCRRTDPALLRHCALALGNCALHGGQAVQRRMVEKRAAEWLFPLAFSKEDELLRLHACLAVAVLATNKEVEREVERSGTLALVEPLVASLDPGRFARCLVDASDTSQGRGPDDLQRLVPLLDSNRLEAQCIGAFYLCAEAAIKSLQGKTKVFSDIGAIQSLKRLVSYSTNGTKSALAKRALRLLGEEVPRPILPSVPSWKEAEVQTWLQQIGFSKYCESFREQQVDGDLLLRLTEEELQTDLGMKSGITRKRFFRELTELKTFANYSTCDRSNLADWLGSLDPRFRQYTYGLVSCGLDRSLLHRVSEQQLLEDCGIHLGVHRARILTAAREMLHSPLPCTGGKPSGDTPDVFISYRRNSGSQLASLLKVHLQLHGFSVFIDVEKLEAGKFEDKLIQSVMGARNFVLVLSPGALDKCMQDHDCKDWVHKEIVTALSCGKNIVPIIDGFEWPEPQVLPEDMQAVLTFNGIKWSHEYQEATIEKIIRFLQGRSSRDSSAGSDTSLEGAAPMGPT
notes: human SARM1 (sterile alpha and TIR motif containing 1), residues 26-724 (26ERL...GPT724); A TEV site follows the His tag; no cleavage is described; also called human SARM1; source: HEK293F, transfected, purified (Ni-chelate, Superdex 200 Increase SEC)
On to B3, for which the binding result in data set [3] was “binds”.

B4: ceTIR-1 (Caenorhabditis elegans) (protein)
chain: HMDELSPVDQRSTSGTARFLIQQDSVVNPSTKMSNTEQVAMMHTLKTKLSKYQAMMDKAFEEIAKVEDANIIEGCTIVRKLMRKVWNTPKVSADLANALCDYLRDRDYFDKLIKMFISPNTAACDQVRMECGKVLEECTSSANLEYIVNKSYTKKIMIVAMKLNKTPDQQRLSLSLIGNLFKHSNAVSLSLIETDVIDHIILTFKRAPECPDILRHAALALANILLYTCFEGKKKIIQKKIPEWLFFLASQADDVTRYYACIAVCTIVSVKEFEPLVRKSDTMKLVEPFLQVHDPATFARDYHKYAQGNTKEWLERLLPMLQPSRRREARSVAAFHFTLEATIKKEQNKLDVFQEIGAIQALKEVASSPDEVAAKFASEALTVIGEEVPYKLAQQVPGWTCADVQYWVKKIGFEEYVEKFAKQMVDGDLLLQLTENDLKHDVGMISGLHRKRFLRELQTLKVAADYSSVDESNLDNFLMGLSPELSVYTYQMLTNGVNRSLLSSLTDEMMQNACGITNPIHRLKLTQAFETAKHPDDVEVAMLSKQIDVFISYRRSTGNQLASLIKVLLQLRGYRVFIDVDKLYAGKFDSSLLKNIQAAKHFILVLTPNSLDRLLNDDNCEDWVHKELKCAFEHQKNIIPIFDTAFEFPTKEDQIPNDIRMITKYNGVKWVHDYQDACMAKVVRFITGELNRTTPTTKEMPSISRKTTQQR
notes: near-intact ARM-SAM-SAM-TIR, residues 162-872 (HMD...QQR), N-terminal 6xHis + TEV site, HEK293F expression, mostly 9-mer ring, partly dissociated
Usually Km stands for the concentration of substrate that gives half-maximal velocity. With B4, the Km in data set [4] came out at 0.25 mM.

B5: CHIMERA (hSARM1 26-562 fused to ceTIR-1 709-872) (enzyme, human | C. elegans, UniProt Q6SZW1 26-562, looked up)
chain: ERLAVPGPDGGGGTGPWWAAGGRGPREVSPGAGTEVQDALERALPELQQALSALKQAGGARAVGAGLAEVFQLVEEAWLLPAVGREVAQGLCDAIRLDGGLDLLLRLLQAPELETRVQAARLLEQILVAENRDRVARIGLGVILNLAKEREPVELARSVAGILEHMFKHSEETCQRLVAAGGLDAVLYWCRRTDPALLRHCALALGNCALHGGQAVQRRMVEKRAAEWLFPLAFSKEDELLRLHACLAVAVLATNKEVEREVERSGTLALVEPLVASLDPGRFARCLVDASDTSQGRGPDDLQRLVPLLDSNRLEAQCIGAFYLCAEAAIKSLQGKTKVFSDIGAIQSLKRLVSYSTNGTKSALAKRALRLLGEEVPRPILPSVPSWKEAEVQTWLQQIGFSKYCESFREQQVDGDLLLRLTEEELQTDLGMKSGITRKRFFRELTELKTFANYSTCDRSNLADWLGSLDPRFRQYTYGLVSCGLDRSLLHRVSEQQLLEDCGIHLGVHRARILTAAREMLHSPLPCTGGKPSGDTPDVFISYRRSTGNQLASLIKVLLQLRGYRVFIDVDKLYAGKFDSSLLKNIQAAKHFILVLTPNSLDRLLNDDNCEDWVHKELKCAFEHQKNIIPIFDTAFEFPTKEDQIPNDIRMITKYNGVKWVHDYQDACMAKVVRFITGELNRTTPTTKEMPSISRKTTQQR
notes: human SARM1 ARM and SAM domains, residues 26-562 (26ERL...DTP562); ceTIR-1 TIR domain, residues 709-872 (709DVF...QQR872); Octamer by cryo-EM, sample supplemented with 5 mM NAD+; also called hARM-SAM-ceTIR CHIMERA; Chimera construct; source: HEK293F, transfected, purified (Ni-chelate, Superdex 200 Increase SEC)
With B5, the “stoichiometry N” value in data set [5] came to 8.
